# Test results: publication PMC9788986, “Dynamic chromatin accessibility deploys heterotypic cis/trans-acting factors driving stomatal cell-fate commitment” (Nature Plants, 2022)
# T1: His tagged BPC2 (1-279) (A. thaliana, UniProt Q9LDE2 1-279)
# T1 chain: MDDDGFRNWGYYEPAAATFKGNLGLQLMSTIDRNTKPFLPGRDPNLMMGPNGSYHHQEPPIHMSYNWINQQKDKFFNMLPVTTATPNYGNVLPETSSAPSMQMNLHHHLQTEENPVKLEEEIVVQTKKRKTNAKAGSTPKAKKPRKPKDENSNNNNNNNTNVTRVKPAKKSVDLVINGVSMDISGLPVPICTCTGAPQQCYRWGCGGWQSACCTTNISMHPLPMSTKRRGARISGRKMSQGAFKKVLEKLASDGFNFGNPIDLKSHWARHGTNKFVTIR
# T2: His tagged BPC1 (1-283) (A. thaliana, UniProt Q9SKD0 1-283)
# T2 chain: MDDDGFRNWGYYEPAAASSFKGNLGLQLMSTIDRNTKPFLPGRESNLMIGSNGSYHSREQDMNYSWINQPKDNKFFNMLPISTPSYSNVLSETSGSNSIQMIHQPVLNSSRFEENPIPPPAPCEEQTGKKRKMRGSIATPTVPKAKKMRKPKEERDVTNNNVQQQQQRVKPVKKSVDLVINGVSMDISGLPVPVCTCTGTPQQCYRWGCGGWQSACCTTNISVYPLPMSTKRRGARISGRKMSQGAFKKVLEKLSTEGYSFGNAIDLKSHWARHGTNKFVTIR
# T3: MUTE-SCRM heterodimer (A. thaliana, UniProt Q9M8K6 1-202; Q9LSE2 1-494)
# T3 construct: MUTE, Arabidopsis thaliana, residues 1-202, in pET28a; also called SCRM-MUTE heterodimer; source: E. coli BL21, purified (MUTE: Ni-NTA, gel filtration; SCRM: glutathione resin, thrombin, gel filtration); not shown: GST, N-terminal, cleaved
# T3 sequence (looked up) 1: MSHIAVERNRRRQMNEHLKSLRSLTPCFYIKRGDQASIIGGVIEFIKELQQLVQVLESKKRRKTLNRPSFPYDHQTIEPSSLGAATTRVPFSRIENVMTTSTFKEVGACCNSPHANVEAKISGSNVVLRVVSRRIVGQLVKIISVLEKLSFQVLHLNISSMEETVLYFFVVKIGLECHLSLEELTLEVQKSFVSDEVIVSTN
# T3 sequence (looked up) 2: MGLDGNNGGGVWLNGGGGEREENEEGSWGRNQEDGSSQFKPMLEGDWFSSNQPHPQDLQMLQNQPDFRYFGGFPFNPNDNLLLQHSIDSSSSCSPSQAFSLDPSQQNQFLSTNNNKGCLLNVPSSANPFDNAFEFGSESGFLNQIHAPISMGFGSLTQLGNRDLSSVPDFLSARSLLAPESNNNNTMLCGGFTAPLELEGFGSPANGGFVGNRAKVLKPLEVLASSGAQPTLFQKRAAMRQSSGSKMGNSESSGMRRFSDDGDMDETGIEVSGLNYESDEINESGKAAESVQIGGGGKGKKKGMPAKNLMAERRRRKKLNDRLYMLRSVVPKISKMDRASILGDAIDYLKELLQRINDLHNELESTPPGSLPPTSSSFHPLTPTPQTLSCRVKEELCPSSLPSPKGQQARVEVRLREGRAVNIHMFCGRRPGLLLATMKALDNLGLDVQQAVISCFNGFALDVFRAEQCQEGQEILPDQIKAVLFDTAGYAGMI
# Tests used:
# [1] = target: T1, His tagged BPC2 (1-279); assay: BLI
# [2] = target: T2, His tagged BPC1 (1-283); assay: BLI
# [3] = target: T3, MUTE-SCRM heterodimer; assay: BLI; Octet Red96; Ni-NTA probes loaded with 500 nM His tagged BPC1 or BPC2; heterodimer as analyte at seven concentrations (200 to 3.12 nM by the methods); 30 °C; 1× PBS with 0.02% Tween 20; 1:1 model, Kd by steady-state analysis; conditions: both partners purified
Kd [1] [nM],Kd [2] [nM],Kd [3] [nM],Binder
227,126,–,SPCH-SCRM heterodimer (complex) chain 1: MQEIIPDFLEECEFVDTSLAGDDLFAILESLEGAGEISPTAASTPKDGTTSSKELVKDQDYENSSPKRKKQRLETRKEEDEEEEDGDGEAEEDNKQDGQQKMSHVTVERNRRKQMNEHLTVLRSLMPCFYVKRGDQASIIGGVVEYISELQQVLQSLEAKKQRKTYAEVLSPRVVPSPRPSPPVLSPRKPPLSPRINHHQIHHHLLLPPISPRTPQPTSPYRAIPPQLPLIPQPPLRSYSSLASCSSLGDPPPYSPASSSSSPSVSSNHESSVINELVANSKSALADVEVKFSGANVLLKTVSHKIPGQVMKIIAALEDLALEILQVNINTVDETMLNSFTIKIGIECQLSAEELAQQIQQTFC chain 2: MGLDGNNGGGVWLNGGGGEREENEEGSWGRNQEDGSSQFKPMLEGDWFSSNQPHPQDLQMLQNQPDFRYFGGFPFNPNDNLLLQHSIDSSSSCSPSQAFSLDPSQQNQFLSTNNNKGCLLNVPSSANPFDNAFEFGSESGFLNQIHAPISMGFGSLTQLGNRDLSSVPDFLSARSLLAPESNNNNTMLCGGFTAPLELEGFGSPANGGFVGNRAKVLKPLEVLASSGAQPTLFQKRAAMRQSSGSKMGNSESSGMRRFSDDGDMDETGIEVSGLNYESDEINESGKAAESVQIGGGGKGKKKGMPAKNLMAERRRRKKLNDRLYMLRSVVPKISKMDRASILGDAIDYLKELLQRINDLHNELESTPPGSLPPTSSSFHPLTPTPQTLSCRVKEELCPSSLPSPKGQQARVEVRLREGRAVNIHMFCGRRPGLLLATMKALDNLGLDVQQAVISCFNGFALDVFRAEQCQEGQEILPDQIKAVLFDTAGYAGMI
–,–,4.8 ± 1.6,"His tagged BPC1 (1-283) (natural protein, A. thaliana, UniProt Q9SKD0 1-283, looked up, BPC1 (BASIC … 1), Arabidopsis thaliana, residues 1-283, in pET28a; source: E. coli BL21, purified (Ni-NTA, gel filtration on Superdex-200); not shown: His tag, N-terminal, kept) MDDDGFRNWGYYEPAAASSFKGNLGLQLMSTIDRNTKPFLPGRESNLMIGSNGSYHSREQDMNYSWINQPKDNKFFNMLPISTPSYSNVLSETSGSNSIQMIHQPVLNSSRFEENPIPPPAPCEEQTGKKRKMRGSIATPTVPKAKKMRKPKEERDVTNNNVQQQQQRVKPVKKSVDLVINGVSMDISGLPVPVCTCTGTPQQCYRWGCGGWQSACCTTNISVYPLPMSTKRRGARISGRKMSQGAFKKVLEKLSTEGYSFGNAIDLKSHWARHGTNKFVTIR"
–,–,11 ± 1.6,"His tagged BPC2 (1-279) (natural protein, A. thaliana, UniProt Q9LDE2 1-279, looked up, BPC2 (BASIC … 2), Arabidopsis thaliana, residues 1-279, in pET28a; source: E. coli BL21, purified (Ni-NTA, gel filtration on Superdex-200); not shown: His tag, N-terminal, kept) MDDDGFRNWGYYEPAAATFKGNLGLQLMSTIDRNTKPFLPGRDPNLMMGPNGSYHHQEPPIHMSYNWINQQKDKFFNMLPVTTATPNYGNVLPETSSAPSMQMNLHHHLQTEENPVKLEEEIVVQTKKRKTNAKAGSTPKAKKPRKPKDENSNNNNNNNTNVTRVKPAKKSVDLVINGVSMDISGLPVPICTCTGAPQQCYRWGCGGWQSACCTTNISMHPLPMSTKRRGARISGRKMSQGAFKKVLEKLASDGFNFGNPIDLKSHWARHGTNKFVTIR"
